Square brackets hold non-standard residues; d marks the D form. Peptide text beside a SMILES is read from it. * marks the point of attachment. X3 = O=C(CCCCCNCc1nc2c(sc3cc(Br)cnc32)c(=O)[nH]1)*
Legend:
Assay in all cases: Kinase profiling (radiometric filter-binding)
Format in all cases: biochemical
[1] = biological target: MNK1 (Homo sapiens, UniProt Q9BUB5); conditions: MNK1, 1 µM inhibitor; read-out: Residual activity, %
Outline: (§1)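 Percent activity retained relative to the no-inhibitor reaction is given. Assays used human enzymes, radiolabel filter capture, ATP concentrations not exceeding the respective KM, and a final inhibitor level of 1 µM.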

[2] = biological target: PKA (Homo sapiens, UniProt P17612); conditions: 1 µM inhibitor, read-out: Residual activity, %
Outline: as §1

[3] = biological target: T1, DDR2 (Homo sapiens, UniProt Q16832); conditions: DDR2, 1 µM inhibitor; read-out: Residual activity, %
T1 sequence (Q16832 22-855): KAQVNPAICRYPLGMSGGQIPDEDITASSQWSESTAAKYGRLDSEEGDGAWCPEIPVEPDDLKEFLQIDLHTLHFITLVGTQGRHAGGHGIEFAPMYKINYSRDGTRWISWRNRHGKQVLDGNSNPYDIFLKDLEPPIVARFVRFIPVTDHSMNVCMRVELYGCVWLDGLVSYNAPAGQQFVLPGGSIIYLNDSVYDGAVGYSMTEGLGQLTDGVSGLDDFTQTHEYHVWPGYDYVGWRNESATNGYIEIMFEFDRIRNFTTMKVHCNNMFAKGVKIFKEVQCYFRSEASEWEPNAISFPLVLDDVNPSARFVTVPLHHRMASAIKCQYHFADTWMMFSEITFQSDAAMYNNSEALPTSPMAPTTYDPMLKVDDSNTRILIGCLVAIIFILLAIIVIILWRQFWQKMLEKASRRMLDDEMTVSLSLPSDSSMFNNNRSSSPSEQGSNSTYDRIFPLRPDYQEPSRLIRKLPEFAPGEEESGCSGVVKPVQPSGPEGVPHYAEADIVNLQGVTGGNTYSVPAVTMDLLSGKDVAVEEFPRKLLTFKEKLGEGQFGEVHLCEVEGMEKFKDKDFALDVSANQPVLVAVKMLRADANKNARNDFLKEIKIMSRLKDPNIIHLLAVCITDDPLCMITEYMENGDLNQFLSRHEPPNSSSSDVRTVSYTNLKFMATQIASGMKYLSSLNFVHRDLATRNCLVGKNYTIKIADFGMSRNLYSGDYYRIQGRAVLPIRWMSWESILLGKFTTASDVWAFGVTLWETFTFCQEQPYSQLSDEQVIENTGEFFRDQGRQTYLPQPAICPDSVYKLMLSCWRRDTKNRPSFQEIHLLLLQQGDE
Outline: as §1

[4] = biological target: T2, DYRK3 (Homo sapiens, UniProt O43781); conditions: DYRK3, 1 µM inhibitor; read-out: Residual activity, %
T2 sequence (O43781 1-588): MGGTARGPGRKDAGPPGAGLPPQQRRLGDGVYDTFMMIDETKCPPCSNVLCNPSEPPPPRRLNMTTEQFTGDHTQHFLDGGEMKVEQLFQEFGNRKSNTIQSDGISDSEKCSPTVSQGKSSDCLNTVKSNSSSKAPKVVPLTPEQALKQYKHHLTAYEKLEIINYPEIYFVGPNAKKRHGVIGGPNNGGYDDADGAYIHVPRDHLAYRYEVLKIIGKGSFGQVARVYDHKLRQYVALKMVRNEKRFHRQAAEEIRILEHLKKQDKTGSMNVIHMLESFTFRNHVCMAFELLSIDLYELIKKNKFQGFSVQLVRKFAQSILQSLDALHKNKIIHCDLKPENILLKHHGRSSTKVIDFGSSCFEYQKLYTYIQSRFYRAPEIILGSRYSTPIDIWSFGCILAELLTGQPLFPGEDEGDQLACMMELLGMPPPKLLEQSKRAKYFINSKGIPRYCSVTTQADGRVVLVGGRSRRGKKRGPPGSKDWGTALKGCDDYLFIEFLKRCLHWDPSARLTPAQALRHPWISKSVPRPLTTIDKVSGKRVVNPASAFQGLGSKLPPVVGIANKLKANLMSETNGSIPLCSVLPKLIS
Outline: as §1

[5] = biological target: HIPK2 (Homo sapiens, UniProt Q9H2X6); conditions: HIPK2, 1 µM inhibitor; read-out: Residual activity, %
Outline: as §1

[6] = biological target: SIK2 (Homo sapiens, UniProt Q9H0K1); conditions: SIK2, 1 µM inhibitor; read-out: Residual activity, %
Outline: as §1

[7] = biological target: OSR1 (Homo sapiens, UniProt O95747); conditions: OSR1, 1 µM inhibitor; read-out: Residual activity, %
Outline: as §1

[8] = biological target: JNK1 (Homo sapiens, UniProt P45983); conditions: JNK1, 1 µM inhibitor; read-out: Residual activity, %
Outline: as §1

[9] = biological target: TIE2 (Homo sapiens, UniProt Q02763); conditions: TIE2, 1 µM inhibitor; read-out: Residual activity, %
Outline: as §1

[10] = biological target: T3, MST2 (Homo sapiens, UniProt Q13188); conditions: MST2, 1 µM inhibitor; read-out: Residual activity, %
T3 sequence (Q13188 1-491): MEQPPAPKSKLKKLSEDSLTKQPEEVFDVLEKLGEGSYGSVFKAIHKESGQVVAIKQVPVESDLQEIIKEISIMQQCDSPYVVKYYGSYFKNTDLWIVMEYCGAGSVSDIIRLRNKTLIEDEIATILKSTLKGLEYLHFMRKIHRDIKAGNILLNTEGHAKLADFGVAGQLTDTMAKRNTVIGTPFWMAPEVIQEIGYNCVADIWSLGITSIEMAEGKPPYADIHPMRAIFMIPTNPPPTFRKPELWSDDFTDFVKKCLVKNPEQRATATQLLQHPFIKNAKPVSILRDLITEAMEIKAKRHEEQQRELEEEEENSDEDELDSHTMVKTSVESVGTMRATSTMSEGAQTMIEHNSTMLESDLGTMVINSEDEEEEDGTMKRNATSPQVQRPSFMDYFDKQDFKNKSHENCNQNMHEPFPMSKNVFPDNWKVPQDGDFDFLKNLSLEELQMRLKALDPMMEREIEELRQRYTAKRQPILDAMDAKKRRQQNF
Outline: as §1

[11] = biological target: EPH-A2 (Homo sapiens, UniProt P29317); conditions: EPH-A2, 1 µM inhibitor; read-out: Residual activity, %
Outline: as §1

[12] = biological target: TTBK1 (Homo sapiens, UniProt Q5TCY1); conditions: TTBK1, 1 µM inhibitor; read-out: Residual activity, %
Outline: as §1

Sequence of HIPK2 (Q9H2X6 whole entry): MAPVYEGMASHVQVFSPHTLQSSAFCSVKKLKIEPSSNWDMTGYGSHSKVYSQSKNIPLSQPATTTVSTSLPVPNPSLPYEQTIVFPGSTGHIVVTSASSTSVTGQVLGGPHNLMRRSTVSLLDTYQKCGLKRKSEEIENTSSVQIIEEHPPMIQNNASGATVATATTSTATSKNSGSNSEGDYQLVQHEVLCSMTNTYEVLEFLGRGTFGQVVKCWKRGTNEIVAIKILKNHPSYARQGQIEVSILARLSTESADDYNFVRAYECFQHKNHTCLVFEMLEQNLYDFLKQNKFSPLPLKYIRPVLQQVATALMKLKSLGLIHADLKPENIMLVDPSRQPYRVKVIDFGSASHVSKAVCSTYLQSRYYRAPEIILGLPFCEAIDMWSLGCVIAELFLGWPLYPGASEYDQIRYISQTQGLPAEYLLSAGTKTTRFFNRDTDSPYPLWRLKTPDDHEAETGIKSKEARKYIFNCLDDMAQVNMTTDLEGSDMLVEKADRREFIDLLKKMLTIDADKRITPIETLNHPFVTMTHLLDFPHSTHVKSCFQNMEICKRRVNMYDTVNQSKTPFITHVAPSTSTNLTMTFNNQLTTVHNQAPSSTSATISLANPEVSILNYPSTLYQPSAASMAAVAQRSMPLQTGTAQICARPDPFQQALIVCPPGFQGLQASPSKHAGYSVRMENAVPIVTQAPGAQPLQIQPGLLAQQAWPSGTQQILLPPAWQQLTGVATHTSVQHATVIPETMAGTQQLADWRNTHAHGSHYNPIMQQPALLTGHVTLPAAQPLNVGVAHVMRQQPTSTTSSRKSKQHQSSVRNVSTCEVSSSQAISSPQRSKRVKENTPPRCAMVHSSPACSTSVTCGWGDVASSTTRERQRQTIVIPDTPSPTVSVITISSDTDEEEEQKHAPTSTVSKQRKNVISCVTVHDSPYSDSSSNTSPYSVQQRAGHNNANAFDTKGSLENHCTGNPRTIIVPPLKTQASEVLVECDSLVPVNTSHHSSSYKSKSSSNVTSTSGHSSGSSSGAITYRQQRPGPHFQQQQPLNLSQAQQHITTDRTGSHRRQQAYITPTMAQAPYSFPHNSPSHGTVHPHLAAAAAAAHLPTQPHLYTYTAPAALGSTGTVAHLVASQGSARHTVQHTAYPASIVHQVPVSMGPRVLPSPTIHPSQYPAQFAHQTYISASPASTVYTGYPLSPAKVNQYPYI
Sequence of TTBK1 (Q5TCY1 whole entry): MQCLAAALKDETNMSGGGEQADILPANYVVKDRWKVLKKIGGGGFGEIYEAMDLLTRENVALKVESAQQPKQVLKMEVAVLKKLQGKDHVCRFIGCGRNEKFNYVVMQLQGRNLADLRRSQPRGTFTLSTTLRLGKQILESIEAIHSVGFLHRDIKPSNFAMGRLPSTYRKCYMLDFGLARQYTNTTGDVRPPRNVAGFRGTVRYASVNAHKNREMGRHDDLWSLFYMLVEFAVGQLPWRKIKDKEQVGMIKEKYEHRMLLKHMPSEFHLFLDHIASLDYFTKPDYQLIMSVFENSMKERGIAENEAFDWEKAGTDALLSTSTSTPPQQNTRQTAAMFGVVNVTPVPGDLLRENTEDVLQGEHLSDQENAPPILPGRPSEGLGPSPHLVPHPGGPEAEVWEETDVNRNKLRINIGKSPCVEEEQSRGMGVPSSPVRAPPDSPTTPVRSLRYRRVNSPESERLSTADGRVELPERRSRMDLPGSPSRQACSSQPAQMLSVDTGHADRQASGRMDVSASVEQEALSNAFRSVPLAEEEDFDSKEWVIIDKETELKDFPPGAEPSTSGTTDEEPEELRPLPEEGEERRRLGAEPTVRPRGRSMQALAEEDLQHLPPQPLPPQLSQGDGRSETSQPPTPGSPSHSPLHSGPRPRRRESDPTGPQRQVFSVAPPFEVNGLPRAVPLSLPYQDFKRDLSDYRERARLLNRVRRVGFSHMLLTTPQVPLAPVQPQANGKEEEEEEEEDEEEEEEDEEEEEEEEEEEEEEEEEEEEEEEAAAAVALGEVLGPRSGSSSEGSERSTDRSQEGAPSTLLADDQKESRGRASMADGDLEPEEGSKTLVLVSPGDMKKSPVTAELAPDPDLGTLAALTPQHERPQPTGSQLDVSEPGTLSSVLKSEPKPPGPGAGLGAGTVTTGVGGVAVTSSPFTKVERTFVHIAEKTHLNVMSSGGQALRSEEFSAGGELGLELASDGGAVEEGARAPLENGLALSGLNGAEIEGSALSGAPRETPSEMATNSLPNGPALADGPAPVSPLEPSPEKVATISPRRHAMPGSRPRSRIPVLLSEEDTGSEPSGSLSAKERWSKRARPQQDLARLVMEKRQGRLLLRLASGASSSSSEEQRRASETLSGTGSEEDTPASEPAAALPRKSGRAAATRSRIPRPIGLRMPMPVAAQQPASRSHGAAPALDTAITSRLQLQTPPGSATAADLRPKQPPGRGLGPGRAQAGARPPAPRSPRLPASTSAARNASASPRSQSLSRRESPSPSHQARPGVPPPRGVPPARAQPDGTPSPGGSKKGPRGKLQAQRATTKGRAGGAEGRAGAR
Sequence of TIE2 (Q02763 23-1124): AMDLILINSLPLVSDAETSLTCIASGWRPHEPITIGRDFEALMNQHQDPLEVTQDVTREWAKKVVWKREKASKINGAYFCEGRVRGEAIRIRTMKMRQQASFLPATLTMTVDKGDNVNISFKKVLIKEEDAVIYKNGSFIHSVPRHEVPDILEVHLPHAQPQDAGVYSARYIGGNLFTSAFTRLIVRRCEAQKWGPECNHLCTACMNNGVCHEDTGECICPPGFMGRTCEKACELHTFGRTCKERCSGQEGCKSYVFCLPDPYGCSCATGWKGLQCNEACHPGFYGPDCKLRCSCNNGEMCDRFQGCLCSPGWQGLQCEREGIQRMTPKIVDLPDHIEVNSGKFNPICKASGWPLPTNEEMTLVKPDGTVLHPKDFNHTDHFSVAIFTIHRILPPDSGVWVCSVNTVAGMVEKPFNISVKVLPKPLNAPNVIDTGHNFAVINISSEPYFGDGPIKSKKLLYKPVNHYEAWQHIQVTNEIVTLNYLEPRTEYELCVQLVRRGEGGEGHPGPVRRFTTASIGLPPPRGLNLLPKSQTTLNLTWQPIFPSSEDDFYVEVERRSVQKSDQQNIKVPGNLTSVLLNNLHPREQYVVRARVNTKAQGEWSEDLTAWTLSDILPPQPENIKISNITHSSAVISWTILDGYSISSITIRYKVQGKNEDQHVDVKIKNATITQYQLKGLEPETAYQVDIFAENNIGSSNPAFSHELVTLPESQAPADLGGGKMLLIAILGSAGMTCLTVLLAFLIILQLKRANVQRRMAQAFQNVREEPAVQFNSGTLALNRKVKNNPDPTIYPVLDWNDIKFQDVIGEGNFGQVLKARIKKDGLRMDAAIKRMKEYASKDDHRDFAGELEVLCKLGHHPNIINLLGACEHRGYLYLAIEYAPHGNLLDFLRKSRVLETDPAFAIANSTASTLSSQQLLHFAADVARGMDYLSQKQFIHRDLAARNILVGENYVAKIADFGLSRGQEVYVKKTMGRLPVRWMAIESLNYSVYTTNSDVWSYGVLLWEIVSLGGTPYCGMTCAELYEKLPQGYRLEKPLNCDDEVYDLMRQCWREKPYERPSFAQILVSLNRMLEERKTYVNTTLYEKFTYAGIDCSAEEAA
Sequence of MNK1 (Q9BUB5 whole entry): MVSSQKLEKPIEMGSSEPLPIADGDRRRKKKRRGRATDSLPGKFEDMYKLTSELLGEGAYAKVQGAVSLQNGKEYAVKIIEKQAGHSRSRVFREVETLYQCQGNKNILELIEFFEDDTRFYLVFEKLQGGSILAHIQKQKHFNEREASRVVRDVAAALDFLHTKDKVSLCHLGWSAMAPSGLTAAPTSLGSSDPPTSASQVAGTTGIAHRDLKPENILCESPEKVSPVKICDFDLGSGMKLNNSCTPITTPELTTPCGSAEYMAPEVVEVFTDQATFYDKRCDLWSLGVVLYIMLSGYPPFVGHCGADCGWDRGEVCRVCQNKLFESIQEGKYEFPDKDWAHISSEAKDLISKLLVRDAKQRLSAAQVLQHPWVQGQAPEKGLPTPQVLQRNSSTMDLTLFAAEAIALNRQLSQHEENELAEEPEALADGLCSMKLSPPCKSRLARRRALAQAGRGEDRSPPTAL
Sequence of OSR1 (O95747 whole entry): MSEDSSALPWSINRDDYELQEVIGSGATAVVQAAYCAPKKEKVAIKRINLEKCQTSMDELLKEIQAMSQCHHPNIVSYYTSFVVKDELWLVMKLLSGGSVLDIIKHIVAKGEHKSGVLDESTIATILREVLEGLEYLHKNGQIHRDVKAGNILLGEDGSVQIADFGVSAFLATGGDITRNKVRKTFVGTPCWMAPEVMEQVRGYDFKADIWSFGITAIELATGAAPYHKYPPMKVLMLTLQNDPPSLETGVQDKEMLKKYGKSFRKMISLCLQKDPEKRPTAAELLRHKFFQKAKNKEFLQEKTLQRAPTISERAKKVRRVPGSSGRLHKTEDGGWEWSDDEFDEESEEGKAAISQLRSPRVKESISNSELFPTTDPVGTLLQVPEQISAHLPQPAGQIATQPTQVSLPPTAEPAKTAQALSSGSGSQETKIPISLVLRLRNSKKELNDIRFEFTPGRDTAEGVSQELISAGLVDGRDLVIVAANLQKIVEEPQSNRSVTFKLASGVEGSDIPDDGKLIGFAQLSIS
Sequence of JNK1 (P45983 whole entry): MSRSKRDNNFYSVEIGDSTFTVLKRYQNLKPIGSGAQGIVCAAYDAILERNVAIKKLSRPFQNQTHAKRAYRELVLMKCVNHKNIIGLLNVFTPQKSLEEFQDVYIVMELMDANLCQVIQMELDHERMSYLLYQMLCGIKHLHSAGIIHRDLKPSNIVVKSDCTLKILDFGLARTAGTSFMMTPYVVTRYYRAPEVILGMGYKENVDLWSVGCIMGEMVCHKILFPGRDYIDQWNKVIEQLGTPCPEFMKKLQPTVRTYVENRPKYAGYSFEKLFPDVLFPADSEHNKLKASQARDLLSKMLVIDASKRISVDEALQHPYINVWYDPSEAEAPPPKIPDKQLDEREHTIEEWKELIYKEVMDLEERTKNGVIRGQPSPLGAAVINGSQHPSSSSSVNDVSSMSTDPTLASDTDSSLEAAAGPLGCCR

**Q.** `N=C(N)NCCC[C@@H](NC(=O)CCCCCNC(=O)Cn1cnc2c(I)c(I)c(I)c(I)c21)C(=O)N[C@H](CCCNC(=N)N)C(=O)N[C@H](CCCNC(=N)N)C(=O)N[C@H](CCCNC(=N)N)C(=O)N[C@H](CCCNC(=N)N)C(=O)N[C@H](CCCNC(=N)N)C(=O)N[C@H](CCCCN)C(N)=O` [ARC-3125, TIBI-CH2-C(=O)-Ahx-(D-Arg)6-D-Lys-NH2] was tested. Which remaining activity at 1 µM [1] did it give?
**A.** 67 ± 4%

**Q.** What about the remaining activity at 1 µM [2] of the same compound?
**A.** 7 ± 3%

**Q.** What about the remaining activity at 1 µM [3] of the same compound?
**A.** 84 ± 13%

**Q.** And the remaining activity at 1 µM [4]?
**A.** 22 ± 2%

**Q.** What about the remaining activity at 1 µM [5] of the same compound?
**A.** 16 ± 2%

**Q.** What about the remaining activity at 1 µM [6] of the same compound?
**A.** 34 ± 4%

**Q.** What about the remaining activity at 1 µM [7] of the same compound?
**A.** 73 ± 2%

**Q.** What about the remaining activity at 1 µM [8] of the same compound?
**A.** 82 ± 13%

**Q.** And the remaining activity at 1 µM [9]?
**A.** 104 ± 9%

**Q.** What about the remaining activity at 1 µM [10] of the same compound?
**A.** 73 ± 1%

**Q.** What about the remaining activity at 1 µM [11] of the same compound?
**A.** 108 ± 2%

**Q.** What about the remaining activity at 1 µM [12] of the same compound?
**A.** 123 ± 25%

**Q.** Which results are given for `N=C(N)NCCC[C@@H](NC(=O)CCCCCNCc1nc2c(sc3cc(Br)cnc32)c(=O)[nH]1)C(=O)N[C@H](CCCNC(=N)N)C(=O)N[C@H](CCCNC(=N)N)C(=O)N[C@H](CCCNC(=N)N)C(=O)N[C@H](CCCNC(=N)N)C(=O)N[C@H](CCCNC(=N)N)C(=O)N[C@H](CCCCN)C(N)=O` [ARC-3126, BPTP-Ahx-(D-Arg)6-D-Lys-NH2] (X3-[dR][dR][dR][dR][dR][dR][dK]-NH2)?
**A.** remaining activity at 1 µM [1]: 89 ± 5%; remaining activity at 1 µM [2]: 97%; remaining activity at 1 µM [3]: 93 ± 3%; remaining activity at 1 µM [4]: 82 ± 1%; remaining activity at 1 µM [5]: 75 ± 15%; remaining activity at 1 µM [6]: 109 ± 6%; remaining activity at 1 µM [7]: 116 ± 12%; remaining activity at 1 µM [8]: 116 ± 4%; remaining activity at 1 µM [9]: 106%; remaining activity at 1 µM [10]: 106 ± 6%; remaining activity at 1 µM [11]: 113 ± 13%; remaining activity at 1 µM [12]: 103 ± 4%

**Q.** For `N=C(N)NCCC[C@@H](NC(=O)CNC(=O)[C@@H](CCCNC(=N)N)NC(=O)[C@@H](CCCNC(=N)N)NC(=O)CCCCCCCNCc1nc2c(sc3cc(Br)cnc32)c(=O)[nH]1)C(=O)N[C@H](CCCCN)C(N)=O` [Compound 1, BPTP-Aoc-(D-Arg)2-Gly-D-Arg-D-Lys-NH2], which remaining activity at 1 µM [1] is on record?
**A.** 102 ± 3%

**Q.** And the remaining activity at 1 µM [2]?
**A.** 100 ± 9%

**Q.** What about the remaining activity at 1 µM [3] of the same compound?
**A.** 104 ± 22%

**Q.** What about the remaining activity at 1 µM [4] of the same compound?
**A.** 43 ± 6%

**Q.** What about the remaining activity at 1 µM [5] of the same compound?
**A.** 103 ± 13%

**Q.** And the remaining activity at 1 µM [6]?
**A.** 110 ± 5%

**Q.** And the remaining activity at 1 µM [7]?
**A.** 114 ± 7%

**Q.** What about the remaining activity at 1 µM [8] of the same compound?
**A.** 100 ± 13%

**Q.** And the remaining activity at 1 µM [9]?
**A.** 110 ± 6%

**Q.** What about the remaining activity at 1 µM [10] of the same compound?
**A.** 115 ± 11%

**Q.** And the remaining activity at 1 µM [11]?
**A.** 116 ± 5%

**Q.** What about the remaining activity at 1 µM [12] of the same compound?
**A.** 116 ± 5%

**Q.** `N=C(N)NCCC[C@@H](NC(=O)CNC(=O)[C@@H](CCCNC(=N)N)NC(=O)[C@@H](CCCNC(=N)N)NC(=O)CCCCCCCNCc1nc2c(sc3ccc(Br)cc32)c(=O)[nH]1)C(=O)N[C@H](CCCCN)C(N)=O` [Compound 2, BBTP-Aoc-(D-Arg)2-Gly-D-Arg-D-Lys-NH2] was tested. Which remaining activity at 1 µM [1] did it give?
**A.** 66 ± 7%

**Q.** What about the remaining activity at 1 µM [2] of the same compound?
**A.** 85 ± 6%

**Q.** What about the remaining activity at 1 µM [3] of the same compound?
**A.** 107 ± 7%

**Q.** What about the remaining activity at 1 µM [4] of the same compound?
**A.** 34 ± 2%

**Q.** And the remaining activity at 1 µM [5]?
**A.** 48 ± 2%

**Q.** And the remaining activity at 1 µM [6]?
**A.** 107 ± 10%

**Q.** What about the remaining activity at 1 µM [7] of the same compound?
**A.** 114 ± 4%

**Q.** What about the remaining activity at 1 µM [8] of the same compound?
**A.** 112 ± 2%

**Q.** And the remaining activity at 1 µM [9]?
**A.** 109 ± 9%

**Q.** And the remaining activity at 1 µM [10]?
**A.** 128 ± 35%

**Q.** And the remaining activity at 1 µM [11]?
**A.** 113 ± 10%

**Q.** And the remaining activity at 1 µM [12]?
**A.** 97 ± 7%

**Q.** What does the source list for `N=C(N)NCCC[C@@H](NC(=O)CNC(=O)[C@@H](CCCNC(=N)N)NC(=O)[C@@H](CCCNC(=N)N)NC(=O)Cn1cc(CNCc2nc3c(sc4ccc(Br)cc43)c(=O)[nH]2)nn1)C(=O)N[C@H](CCCCN)C(N)=O` [Compound 3, BBTP-Amt-(D-Arg)2-Gly-D-Arg-D-Lys-NH2]?
**A.** remaining activity at 1 µM [1]: 89 ± 8%; remaining activity at 1 µM [2]: 82 ± 10%; remaining activity at 1 µM [3]: 112 ± 6%; remaining activity at 1 µM [4]: 55 ± 4%; remaining activity at 1 µM [5]: 50 ± 7%; remaining activity at 1 µM [6]: 68 ± 3%; remaining activity at 1 µM [7]: 107 ± 14%; remaining activity at 1 µM [8]: 115 ± 13%; remaining activity at 1 µM [9]: 103 ± 12%; remaining activity at 1 µM [10]: 84 ± 6%; remaining activity at 1 µM [11]: 132 ± 6%; remaining activity at 1 µM [12]: 99 ± 6%
